Source: EP0853661B1 (CAMBRIDGE ANTIBODY TECHNOLOGY LIMITED, dated 2000)

T1: human TGFβ2 (transforming growth factor beta 2) (human, UniProt P61812 303-414)
T1 sequence (looked up): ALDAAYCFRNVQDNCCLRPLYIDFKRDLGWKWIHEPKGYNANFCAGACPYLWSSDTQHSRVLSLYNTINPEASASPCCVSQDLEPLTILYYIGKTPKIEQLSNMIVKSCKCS

T2: TGFβ3 (transforming growth factor beta 3) (UniProt P10600 301-412)
T2 sequence (looked up): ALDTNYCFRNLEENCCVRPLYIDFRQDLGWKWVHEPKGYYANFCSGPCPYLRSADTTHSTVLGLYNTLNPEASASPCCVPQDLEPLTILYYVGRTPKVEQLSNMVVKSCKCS


Key:
[1] = biological target: T3, human TGFβ1 (transforming growth factor beta 1) (human, UniProt P01137 279-390); test: specificity ELISA, TGFβ isoforms coated at 0.2µg/ml
T3 construct: mature; Active dimer; also called TGFbeta1
T3 sequence (P01137 279-390 limits assumed): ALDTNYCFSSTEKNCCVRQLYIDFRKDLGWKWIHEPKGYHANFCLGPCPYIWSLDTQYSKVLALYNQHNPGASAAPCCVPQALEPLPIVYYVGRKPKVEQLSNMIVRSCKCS

[2] = biological target: T1, human TGFβ2 (transforming growth factor …); test: cell-based or functional assay
[3] = biological target: T1, human TGFβ2 (transforming growth factor …); test: cell-based or functional assay; remark: listed apart in the source
[4] = biological target: T2, TGFβ3 (transforming growth factor beta …); test: cell-based or functional assay
[5] = biological target: T2, TGFβ3 (transforming growth factor beta …); test: A549 cell radioreceptor assay
[6] = biological target: T2, TGFβ3 (transforming growth factor beta …); test: BIAcore 2000, ratio of dissociation constants
[7] = biological target: T2, TGFβ3 (transforming growth factor beta …); test: BIAcore 2000, antigen immobilised, antibody as analyte
[8] = biological target: T2, TGFβ3 (transforming growth factor beta …); test: BIAcore 2000, antigen immobilised, antibody as analyte; koff divided by kon
[9] = biological target: T2, TGFβ3 (transforming growth factor beta …); test: A549 cell radioreceptor assay, inhibition of 125I-TGFβ3 binding to receptors
[10] = biological target: T1, human TGFβ2 (transforming growth factor …); test: BIACore, IgG4 over TGFβ2-coated chip
[11] = biological target: T2, TGFβ3 (transforming growth factor beta …); test: cell-based or functional assay; remark: listed apart in the source
[12] = biological target: T3, human TGFβ1 (transforming growth factor …); test: BIACore, scFv (35µl) injected over amine-coupled antigen on CM5 chip; chip as printed
[13] = biological target: T1, human TGFβ2 (transforming growth factor …); test: as above

I.C.50 in TF1 assay (neutralisation of the TGFβ2 inhibition of IL-5 induced TF1 cell proliferation) [2]	total increase in resonance units (RU) [12]	total increase in resonance units (RU) [13]	Binder	further results
–	–	–	10A6 scFv (scFv) QVQLVESGGGVVQPGRSLRLSCAASGFTFSSYGMHWVRQAPGKGLEWVAVISYDGSNKYYADSVKGRFTISRDNSKNTLYLQMNSLRAEDTAVYYCAKTGEYSGYDSSGVDVWGKGTTVTVSSGGGGSGGGGSGGGGSHVILTQDPAVSVALGQTVRITCQGDSLKSYYASWYQQKPGQAPVLVIYGENSRPSGIPDRFSGSSSGNTASLTITGAQAEDEADYYCNSRDSSGTHLEVFGGGTKLTVLG	fold ELISA signal on TGFβ1 against the signal on TGFβ2 and TGFβ3 [1]: ≥ 5 fold
15 nM	–	–	6B1 scFv (scFv) EVQLVESGGGVVQPGRSLRLSCAASGFTFSSYGMHWVRQAPGKGLEWVAVIWYDGSNKYYADSVKGRFTISRDNSKNTLYLQMDSLRAEDTAVYYCGRTLESSLWGQGTLVTVSSGGGGSGGGGSGGGGSSSELTQDPAVSVALGQTVRITCQGDSLRSYYASWYQQKPGQAPVLVIYGKNNRPSGIPDRFSGSSSGNTASLTITGAQAEDEADYYCNSRDSSSTHRGVFGGGTKLTVLG	–
11 nM	–	–	6B1 IgG4 (antibody, V domains shown) VH: EVQLVESGGGVVQPGRSLRLSCAASGFTFSSYGMHWVRQAPGKGLEWVAVIWYDGSNKYYADSVKGRFTISRDNSKNTLYLQMDSLRAEDTAVYYCGRTLESSLWGQGTLVTVSS VL: SSELTQDPAVSVALGQTVRITCQGDSLRSYYASWYQQKPGQAPVLVIYGKNNRPSGIPDRFSGSSSGNTASLTITGAQAEDEADYYCNSRDSSSTHRGVFGGGTKLTVLG	IC50 in the TF1 neutralisation assay (6B1 IgG4 from cell line 5D8-2A6) [3]: 1.8 nM; TF1 cell proliferation assay IC50 (nM IgG) [4]: 11 nM; cross-reactivity with TGFβ3 relative to TGFβ2 [5]: < 2%; cross-reactivity with TGFβ3 (ratio of dissociation constants for TGFβ3 and TGFβ2) [6]: 9%; koff [7]: 0.00045 s⁻¹; kon [7]: 45000 M⁻¹ s⁻¹; Kd [8]: 10 nM; IC50 [9]: 4 nM
–	–	–	27C1/10A6 IgG4 (antibody, V domains shown) VH: QVQLVESGGGVVQPGRSLRLSCAASGLTFSSYDMHWVRQPPAKGLEWVAVISYDGSSKYYADSVKGRFTISRDNSKNTLYLQMNSLRAEDTAVYYCARTGEYSGYDTSGVELWGQGTTVTVSS VL: HVILTQDPAVSVALGQTVRITCQGDSLKSYYASWYQQKPGQAPVLVIYGENSRPSGIPDRFSGSSSGNTASLTITGAQAEDEADYYCNSRDSSGTHLEVFGGGTKLTVLG	fold higher dissociation constant for TGFβ2 compared to TGFβ1 [10]: ≥ 10 fold
150 nM	–	–	6A5 IgG4 (antibody, V domains shown) VH: EVQLVESGGGVVQPGRSLRLSCAASGFTFSSYGMHWVRQAPGKGLEWVAVIWYDGSNKYYADSVKGRFTISRDNSKNTLYLQMDSLRAEDTAVYYCGRTLESSLWGQGTLVTVSS VL: SSELTQDPAVSVALGQTVRITCQGDSLRSYYASWYQQKPGQAPVLVIYGKNNRPSGIPDRFAGSNSGNTASLTITGAQAEDEADYYCSSRDSSGNHVVFGGGTKLTVLG	–
100 nM	–	–	6H1 IgG4 (antibody, V domains shown) VH: EVQLVESGGGVVQPGRSLRLSCAASGFTFSSYGMHWVRQAPGKGLEWVAVIWYDGSNKYYADSVKGRFTISRDNSKNTLYLQMDSLRAEDTAVYYCGRTLESSLWGQGTLVTVSS VL: DVVMTQSPSSLSASVGDRVTITCRASQGISNYLAWYQQKPGKAPKLLIYKASTLESGVPSRFSGSGSGTEFTLTISSLQPEDFATYYCQQSYSTPRTFGQGTKVDIKR	IC50 in the TF1 neutralisation assay (6H1 IgG4 from a CHO cell line) [3]: 15 nM; IC50 of neutralisation of TGFβ2 in the TF1 cell proliferation assay [3]: 12 nM; IC50 of neutralisation of TGFβ3 in the TF1 cell proliferation assay [11]: ~20 nM
1.5 nM	686 RU	77 RU	6H1 scFv (scFv) EVQLVESGGGVVQPGRSLRLSCAASGFTFSSYGMHWVRQAPGKGLEWVAVIWYDGSNKYYADSVKGRFTISRDNSKNTLYLQMDSLRAEDTAVYYCGRTLESSLWGQGTLVTVSSGGGGSGGGGSGGGGSDVVMTQSPSSLSASVGDRVTITCRASQGISNYLAWYQQKPGKAPKLLIYKASTLESGVPSRFSGSGSGTEFTLTISSLQPEDFATYYCQQSYSTPRTFGQGTKVDIKR	–
8 nM	480 RU	71 RU	6A5 scFv (scFv) EVQLVESGGGVVQPGRSLRLSCAASGFTFSSYGMHWVRQAPGKGLEWVAVIWYDGSNKYYADSVKGRFTISRDNSKNTLYLQMDSLRAEDTAVYYCGRTLESSLWGQGTLVTVSSGGGGSGGGGSGGGGSSSELTQDPAVSVALGQTVRITCQGDSLRSYYASWYQQKPGQAPVLVIYGKNNRPSGIPDRFAGSNSGNTASLTITGAQAEDEADYYCSSRDSSGNHVVFGGGTKLTVLG	–
90 nM	616 RU	115 RU	14F12 scFv (scFv) EIQLVESGGGVVQPGRSLRLSCAASGFTFSSYAMHWVRQAPAKGLEWVAVISYDGSNKYYADSVKGRFTISRDNSKNTLYLQMNSLRAEDTAVYYCARAGLETTWGQGTLVTVSSSGGGGGSGGGGSGGGGSSSELTQDPAVSVALGQTVRITCQGDSLRNYYANWYQQKPGQAPVLVIYGKNNRPSGIPDRFSGSSSGNTASLTITGARAEDEGVYYCNSRDSSGAVFGGGTKLTVLG	–
